In the supplement of paper PMC9170038:

Each sequence was assayed on MS2 coat protein (assay: apparent KD of MS2 coat protein, switch ON state; designed switch direction (-1 OFF switch, 1 ON switch): -1; higher = weaker reporter binding). Details: FMN input: 0 or 200 uM; Eterna round: R93 (includes R88 designs).
Method in brief: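 Apparent KD per design is the median of normalised cluster binding-curve fits. Designed RNA switches transcribed on-chip from Illumina sequencing clusters were titrated with SNAP-549-labelled MS2 coat protein in twofold steps from 0.7 or 1.5 nM to 3 µM, with 0.8–1.5 h down to 10–20 min per step. Buffer: 100 mM Tris-HCl pH 7.5, 80 mM KCl, 4 mM MgCl2, without or with constant ligand.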

“AAAAAGGCAGGAUAUACAUGAGGAUCACCCAUGUUUUAAAAAAAAAAAAAAAAAAAAAGUAGAAGGGCCAAAAA [Ex 3.1]” and “AGCUAGGUAGGAUAUACGUAAAUGUCGAAAGACGUAUUGGGACAUGAGGAUCACCCAUGUAGAAGGAUCUAGCA [it's a mod mod mod world 3]” are within 1.5-fold of each other in “apparent KD of MS2 coat protein” value: 52.3 nM for the first, 38.8 nM for the second.

Going from “AAAUGACUAGGAUAUACAUGAGGAUCACCCAUGUGUAUAAAUAAAUACACAAAAGAAAGUAGAAGGAGUCAAAA [Ex 3 May 14]” to “UAGAACCUAGGAUAUACUUGGGUCACUAAUUUACUGAUAUAACAUGAGGAUCACCCAUGUAGAAGGAGGAGUAA [JR_Exc002_Sub203]”, the “apparent KD of MS2 coat protein” value rises from 15.8 nM to 45.2 nM (2.9-fold).

Compared with “AAAACGGUAGGAUAUACGAUUUGGAACUAGACCGAGGAACCACAUGAGGAUCACCCAUGUAGAAGGGCCAAAAA [EX2 Malc#17]”, “AAAUAGCAAGGAUAUACAUGAGGAUCACCCAUGUAAGGAUGAUACGUAAUAGAAGAAAGUAGAAGGUGCAAAUA [Ex 3 Tesla 6]” is 2.7-fold higher in “apparent KD of MS2 coat protein” value: 15.6 nM for the first, 42.8 nM for the second.

First: AAGAACUCAGGAUAUACAAAAUAAAAGAAAAGAAAGAAAGAACAUGAGGAUCACCCAUGUAGAAGGGAGAAGAA [Sobekkare Sobekneferu]
Second: AAGAAUGCAGGAUAUACAAGAAAGAAAGAAAAGAAAAGAAAACAUGAGGAUCACCCAUGUAGAAGGGCAUAGAA [EteRNA is fun!]
The “apparent KD of MS2 coat protein” value of the first is 1.9-fold higher: 61.2 nM for the first, 32.6 nM for the second.

Going from “GGUUGUGGAGGAUAUACAUGAGGAUCACCCAUGUGAGAGAAAAAAGUGAGAAAGAAAAGUAGAAGGUCGUGACG [salish99-ex3-69]” to “AAAAAGCGAGGAUAUACAAAAGAGCGAAAGCUCAAAAGGAAACAUGAGGAUCACCCAUGUAGAAGGCGCAAGAA [John Whine]”, the “apparent KD of MS2 coat protein” value falls from 36.8 nM to 23.1 nM (1.6-fold).

First: CUCAUGUGAGGAUAUCAGUAGUAAAAAAAUAAAAUUACUACUGAGAAGGCACAUGAGGAUCACCCAUGUGUCUU [EX4 331: Super Stable 31]
Second: AAUAAACAUGAGGAUCACCCAUGUGAGGAUAUACAGAUUAUAAGAAAAAAAAAAAAAAGUAGAAGGCACAUAUA [Default title]
The “apparent KD of MS2 coat protein” value of the first is 2.6-fold higher: 45.8 nM for the first, 17.6 nM for the second.

Going from “AAAGGAUCAGGAUAUGUGUGGGAAAAGUGUGUCCAAAAAAAACAUGAGGAUCACCCAUGUAGAAGGGAUCCAAA [Mod 6 of Normal (20/19) by Nando, Round 1]” to “AAGAAGUGAGGAUAUGCUGACAAUAUGAAGACUUGAGGUAUGCAGAAGGCACAUGAGGAUCACCCAUGUAAGAA [JR_Exclusion4_Sub4]”, the “apparent KD of MS2 coat protein” value falls from 487 nM to 27.4 nM (18-fold).

Compared with “AGGAAGUGAGGAUAUGCUGCUCGUCACUUGCGUGAUGAGUAGCAGAAGGCACAUGAGGAUCACCCAUGUAAAAA [Mat - Exaclusion 4 - Eli mod - D21]”, “GUGUACAGAGGAUAUACAUAAGCUAGGAAACUAGCAAGAUCACAUGAGGAUCACCCAUGUAGAAGGCUGUACAC [Ex2: 739]” is 5.8-fold higher in “apparent KD of MS2 coat protein” value: 46.7 nM for the first, 270 nM for the second.

“CUCAUGUCAGGAUAUCAGUAGUAAAAAAAAAAAAUUACUACUGAGAAGGGACAUGAGGAUCACCCAUGUCCAUU [EX4 304: Super Stable 4]” and “CACGUACAUGAGGAUCACCCAUGUUAGGAUAUGCCGGGUAAGAGAAAACUAAAAAUCAGCAGAAGGGACGAAAC [Bilbo Confounded 16 - Jieux - Exclusion 1]” are within 1.5-fold of each other in “apparent KD of MS2 coat protein” value: 53 nM for the first, 36.7 nM for the second.

“AACGUACAUGAGGAUCACCCAUGUUAGGAUAUGCCGGGUUAGAGCCAACUAAAAAACCGUAGAAGGGACGAAAA [Bilbo Confounded 11 - Jieux - Exclusion 1]” and “AAGAAGGUAGGAUAUACAUGAGGAUCACCCAUGUAAAAGAAAGAAGGGAAAGAGAAAAGUAGAAGGACCAAGAA [Rudamon]” are within 1.5-fold of each other in “apparent KD of MS2 coat protein” value: 27.6 nM for the first, 33.4 nM for the second.

Going from “AACAAGUCAGGAUAUUCGAAAAGUAAAUAAGUAAAACAAAAGAAGAAGGGACAUGAGGAUCACCCAUGUAAAUA [JR_Exc004_Sub016]” to “CGAAUGUAAGGAUAUAGCCACAUUACGAAUAAGUAGUGUGGCUAGAAGGUACAUGAGGAUCACCCAUGUAUGGG [Exclusion 4.5 (AU closing FMN)]”, the “apparent KD of MS2 coat protein” value rises from 46.1 nM to 181 nM (3.9-fold).

First: AACAGUACAGGAUAUACAUGAGGAUCACCCAUGUGAAAAUAAAGUGGCGUACCACGAAGUAGAAGGGUACUGGA [Ruby 58]
Second: AGUAUGCGAGGAUAUACAUGAGGAUCACCCAUGUGAGAGAUAAGUGUGAGAAAGACAAGUAGAAGGCGCGUACA [JL Lego Mod 27]
The “apparent KD of MS2 coat protein” value of the first is 5-fold lower: 21.1 nM for the first, 106 nM for the second.

Compared with “CUCAAGUUAGGAUAUCGAAGAAAAGAAGAGAAAGAAAAGAACGAGAAGGAACAUGAGGAUCACCCAUGUAAGAA [EteRNA is fun!]”, “AAAAAGUGAGGAUAUGUCAAAAGUCACAAAAGUGACAAAAGACAGAAGGCACAUGAGGAUCACCCAUGUGGGAA [Mod of Eli - Late G + early G segment 1]” is 4.8-fold higher in “apparent KD of MS2 coat protein” value: 11.8 nM for the first, 56.1 nM for the second.

First: AGUUUGUCAGGAUAUGCGUGAAGAAUAAAACAAAUAACAACGCAGAAGGGACAUGAGGAUCACCCAUGUAAACA [May 54]
Second: AAAACACAUGAGGAUCACCCAUGUGAGGAUAUGCUAUGGAAAAUAAAAAUAAAACAUAGCAGAAGGCACAAAAA [Denovo 12]
The “apparent KD of MS2 coat protein” value of the first is 2.5-fold higher: 51.3 nM for the first, 20.3 nM for the second.

First: AAGGUUGGAGGAUAUACAUAGAUACAGAUACAUGUAGACGUACAUGAGGAUCACCCAUGUAGAAGGCCAAUAUA [Mat - Same state - Mayanna Mod - D146]
Second: UGUGAACAUGAGGAUCACCCAUGUGAGGAUAUACGAGCGUGAGAAAGAUAAAACGAGCGUAGAAGGCACAAGAA [JR_Exclusion1_Sub5]
The “apparent KD of MS2 coat protein” value of the first is 3.2-fold higher: 137 nM for the first, 43.3 nM for the second.

“AAGAAGUGAGGAUAUCGAAGACUGUCGAAAAGACAGUCGAACGAGAAGGCACAUGAGGAUCACCCAUGUGAGAG [Mat - Exaclusion 4 - Eli mod - D66]” and “GAAGAACAUGAGGAUCACCCAUGUCAGGAUAUGCGGAAGGGAAUAAUAACUUCCGGAAGCAGAAGGGACAAGAA [Ex 1 May 49]” are within 1.5-fold of each other in “apparent KD of MS2 coat protein” value: 31.9 nM for the first, 32.3 nM for the second.

Going from “AAGAACCUAGGAUAUACUUGGGUAACUAAUAAACUGAUAUAACAUGAGGAUCACCCAUGUAGAAGGAGGAGAAA [JR_Exc002_Sub204]” to “AAAAAGGUAGGAUAUACGAAAAAAAAGGGUAAAAAAUAAAAACAUGAGGAUCACCCAUGUAGAAGGACCAAAAA [Mat - Exclusion 2 - Tesla mod - D41]”, the “apparent KD of MS2 coat protein” value falls from 50.1 nM to 30.5 nM (1.6-fold).

“UUAGAACAUGAGGAUCACCCAUGUGAGGAUAUGCAAUACUAGCGACAAGAUCAUUAUAGCAGAAGGCACGUAGU [JR_EXc001_Sub806]” and “AAUAAGUCAGGAUAUGCGAAUAGAAGAUAAGAUACCCAAAAGCAGAAGGGACAUGAGGAUCACCCAUGUAAAUA [JR_Exc004_Sub010]” are within 1.5-fold of each other in “apparent KD of MS2 coat protein” value: 30.1 nM for the first, 31.1 nM for the second.

First: AACAGUACAGGAUAUACAUGAGGAUCACCCAUGUGAAAAUUAAGUGGAGAACCACAAGGUAGAAGGGUACUGGA [Mat - Exclusion 3 - Eli mod - D62]
Second: AAGAAACAUGAGGAUCACCCAUGUCAGGAUAUCCAAGAAAGAAAGAAAGAAAGAAGAAGGAGAAGGGACAAAGG [Lucius Antonius Pedo]
The “apparent KD of MS2 coat protein” value of the first is 1.5-fold lower: 42.4 nM for the first, 64.8 nM for the second.

“AAAAAGGGAGGAUAUACAUGAGGAUCACCCAUGUGUCAGACGAAAAAGAGUCUGAAGUGUAGAAGGCCCAAAAA [65%, Moding Exclusion3-cac2, 1]” and “GUGUACAGAGGAUAUAUAUAAGCAUGGAAACAUGCAAGAUCACAUGAGGAUCACCCAUGUAGAAGGCUGUACAC [Ex2: 737]” are within 1.5-fold of each other in “apparent KD of MS2 coat protein” value: 25.9 nM for the first, 23.3 nM for the second.

Going from “AAAUUGUGAGGAUAUCUGGAUAGGAAAAAGAAAACCUAUCCAGAGAAGGCACAUGAGGAUCACCCAUGUAAAAA [JL cataway mod 5]” to “AAGUAGCUAGGAUAUACAUAGAUACAGAUUCAUGUAGAACUACAUGAGGAUCACCCAUGUAGAAGGAGCUAAUA [AJ 35]”, the “apparent KD of MS2 coat protein” value falls from 61.7 nM to 31.4 nM (2-fold).

“AAUGGUGGAGGAUAUACAUGAGGAUCACCCAUGUAAAUCACACAUGUGGUCAAAGCAUGUAGAAGGCCACUAAA [Ex 3May 52]” and “AAGAUGUCAGGAUAUGCUGCUCGUCACGAAAGUGAUGAGUAGCAGAAGGGACAUGAGGAUCACCCAUGUAAAGA [Exclusion 4.1c (Exclusion4-cac2 - mutated U at 5)]” are within 1.5-fold of each other in “apparent KD of MS2 coat protein” value: 86 nM for the first, 112 nM for the second.
